Experimental data from paper PMC6155069, “Cryo-EM analysis of the T3S injectisome reveals the structure of the needle and open secretin” (Nature Communications, 2018).

B1: InvG (outer membrane secretin) in the purified needle complex (natural protein)
chain: SEKIPVTGSGFVAKDDSLRTFFDAMALQLKEPVIVSKMAARKKITGNFEFHDPNALLEKLSLQLGLIWYFDGQAIYIYDASEMRNAVVSLRNVSLNEFNNFLKRSGLYNKNYPLRGDNRKGTFYVSGPPVYVDMVVNAATMMDKQNDGIELGRQKIGVMRLNNTFVGDRTYNLRDQKMVIPGIATAIERLLQGEEQPLGNIVSSEPPAMPAFSANGEKGKAANYAGGMSLQEALKQNAAAGNIKIVAYPDTNSLLVKGTAEQVHFIEMLVKALDVAKRHVELSLWIVDLNKSDLERLGTSWSGSITIGDKLGVSLNQSSISTLDGSRFIAAVNALEEKKQATVVSRPVLLTQENVPAIFDNNRTFYTKLIGERNVALEHVTYGTMIRVLPRFSADGQIEMSLDIEDGNDKTPQSDTTTSVDALPEVGRTLISTIARVPHGKSLLVGGYTRDANTDTVQSIPFLGKLPLIGSLFRYSSKNKSNVVRVFMIEPKEIVDPLTPDASESVNNILKQSGAWSGDDKLQKWVRVYLDRGQEAIK
notes: InvG, secretin of the Salmonella Typhimurium SPI-1 type III secretion system, native protein in the needle complex; the final model covers residues 34-557 (N3 domain loop 228-251 disordered); Native protein stood in the sample; 34-557 was modelled (core 176-557 at 3.9 Å); also called InvG_(34–557); InvG_(176–557); source: endogenous, ΔflhD Salmonella SL1344 with HilA on a pBAD plasmid; needle …
B2: PrgH (inner membrane ring protein) in the purified needle complex (natural protein)
chain: METSKEKTITSPGPYIVRLLNSSLNGCEFPLLTGRTLFVVGQSDALTASGQLPDIPADSFFIPLDHGGVNFEIQVDTDATEIILHELKEGNSESRSVQLNTPIQVGELLILIRPESEPWVPEQPEKLETSAKKNEPRFKNGIVAALAGFFILGIGTVGTLWILNSPQRQAAELDSLLGQEKERFQVLPGRDKMLYVAAQNERDTLWARQVLARGDYDKNARVINENEENKRISIWLDTYYPQLAYYRIHFDEPRKPVFWLSRQRNTMSKKELEVLSQKLRALMPYADSVNITLMDDVTAAGQAEAGLKQQALPYSRRNHKGGVTFVIQGALDDVEILRARQFVDSYYRTWGGRYVQFAIELKDDWLKGRSFQYGAEGYIKMSPGHWYFPSPL
notes: PrgH, Salmonella Typhimurium SPI-1 type III secretion system, native protein in the needle complex; Native protein stood in the sample; only 171-364 was modelled; also called PrgH_(171–364); IM rings; source: endogenous, ΔflhD Salmonella SL1344 with HilA on a pBAD plasmid; needle complex purified (LDAO lysis, centrifugation, CsCl gradient, Superose 6); copies: 24
B3: PrgI (needle protein), isolated needle filament (natural protein)
chain: MATPWSGYLDDVSAKFDTGVDNLQTQVTEALDKLAAKPSDPALLAAYQSKLSEYNLYRNAQSNTVKVFKDIDAAIIQNFR
notes: PrgI, needle protein of the Salmonella Typhimurium SPI-1 type III secretion system; the model covers residues 3-80 (lacks only the first two N-terminal residues; C-terminal residue Arg80); Helical polymer of many copies; also called the needle; PrgI_(3–80); source: non-flagellated ΔPrgI Salmonella Typhimurium complemented with PrgI and hilA on pBAD plasmid; filaments removed by vigorous stirring, …
B4: PrgI (needle protein) in the purified needle complex (natural protein, UniProt P41784 1-80, looked up)
chain: MATPWSGYLDDVSAKFDTGVDNLQTQVTEALDKLAAKPSDPALLAAYQSKLSEYNLYRNAQSNTVKVFKDIDAAIIQNFR
notes: PrgI, needle protein of the Salmonella Typhimurium SPI-1 type III secretion system, as part of the native needle complex; Not resolved at high resolution inside the needle complex; the model of the isolated needle was fitted into the C1 map; also called the needle; needle filament; source: endogenous, ΔflhD Salmonella SL1344 with HilA on a pBAD plasmid; needle complex purified (LDAO lysis, …)
B5: PrgK (inner membrane ring protein) in the purified needle complex (natural protein)
chain: CKDKDLLKGLDQEQANEVIAVLQMHNIEANKIDSGKLGYSITVAEPDFTAAVYWIKTYQLPPRPRVEIAQMFPADSLVSSPRAEKARLYSAIEQRLEQSLQTMEGVLSARVHISYDIDAGENGRPPKPVHLSALAVYERGSPLAHQISDIKRFLKNSFADVDYDNISVVLSERSDAQLQAPGTPVKRNSFATSWIVLIILLSVMSAGFGVWYYKNHYARNKKGITADDKAKSSNE
notes: PrgK, Salmonella Typhimurium SPI-1 type III secretion system, native protein in the needle complex; Native protein stood in the sample; only 20-203 was modelled; also called PrgK_(20–203); IM rings; source: endogenous, ΔflhD Salmonella SL1344 with HilA on a pBAD plasmid; needle complex purified (LDAO lysis, centrifugation, CsCl gradient, Superose 6); copies: 24

What was measured:
[1] = molecular target: the molecule itself; assay: cryo-EM structure; purified needle complex; symmetrised reconstructions with atomic models: C24 IM rings 3.6 Å; signal subtraction and focussed refinement of the secretin with C15, 4.1 Å (whole) and 3.9 Å (core)
[2] = molecular target: B1; assay: cryo-EM structure; purified needle complex; unsymmetrised C1 reconstruction, 7.4 Å; molecular envelope, needle model fitted with Chimera; conditions: both partners purified
[3] = molecular target: the molecule itself; assay: cryo-EM structure; isolated needle filaments, helical reconstruction in Relion, 3.3 Å (helical rise 4.33 Å, turn 63.34°), de novo model
[4] = molecular target: B2; assay: cryo-EM structure; purified needle complex; symmetrised reconstructions with atomic models: C24 IM rings 3.6 Å; signal subtraction and focussed refinement of the secretin with C15, 4.1 Å (whole) and 3.9 Å (core); conditions: both partners purified

Row | Binder | stoichiometry N [1] | binding result [2] | binding result [3] | binding result [4]
1 | B1 | 15 | – | – | –
2 | B2 | 24 | binds | – | –
3 | B3 | – | – | binds | –
4 | B4 | – | binds | – | –
5 | B5 | 24 | – | – | binds
